For this experiment, the target named is Human sapovirus (HuSaV) GI.6 capsid protein VP1, Nichinan strain, self-assembled as a virus-like particle (VLP) (human sapovirus GI.6, Nichinan strain). The experiment in a line: cryo-EM structure; single-particle cryo-EM of purified VLPs in Express Five SFM, icosahedral symmetry imposed, 2.9 Å; de novo atomic model.

Consider “Human sapovirus (HuSaV) GI.6 capsid protein VP1, Nichinan strain, self-assembled as a virus-like particle (VLP) (natural protein)”, for which the stoichiometry N was 180 copies.

(Values after publication PMC9093105.)
